From article PMC6168553 (Nature Communications, 2018)

Tests used:
[1] = target: the molecule itself; experiment: cryo-EM structure; helical reconstruction of NOD2CARDS^s-RIP2CARD filaments, filament ends left out; 3.94 Å
[2] = target: the molecule itself; experiment: negative-stain EM; amylose eluate (with co-purified NOD2CARDS^s) at 2.5 mg ml^−1, polymerization stimulated by proteases for 4 h at room temperature
[3] = target: the molecule itself; experiment: negative-stain EM; void-volume fraction of size-exclusion chromatography after cleavage of the MBP tag by TEV
[4] = target: T1, NOD2ΔLRR (residues 1-619), MBP tag cleaved (human, UniProt Q9HC29 1-619); experiment: immuno-gold labelling with negative-stain EM; purified NOD2ΔLRR mixed with a 50-fold excess of MBP-RIP2CARD, polymerization induced by TEV; rabbit anti-NOD2 and gold-conjugated anti-rabbit; conditions: both partners purified
T1 construct: NOD2 (nucleotide oligomerization domain 2), human, CARDS and NOD without the LRR domain, residues 1-619; A less aggregated SEC fraction was used; the protein forms soluble aggregates; also called MBP-NOD2ΔLRR before cleavage; source: sf21 insect cells (baculovirus), purified (amylose resin, TEV cleavage, size exclusion chromatography); not shown: MBP, N-terminal, cleaved
T1 sequence (Q9HC29 1-619, stated change not applied): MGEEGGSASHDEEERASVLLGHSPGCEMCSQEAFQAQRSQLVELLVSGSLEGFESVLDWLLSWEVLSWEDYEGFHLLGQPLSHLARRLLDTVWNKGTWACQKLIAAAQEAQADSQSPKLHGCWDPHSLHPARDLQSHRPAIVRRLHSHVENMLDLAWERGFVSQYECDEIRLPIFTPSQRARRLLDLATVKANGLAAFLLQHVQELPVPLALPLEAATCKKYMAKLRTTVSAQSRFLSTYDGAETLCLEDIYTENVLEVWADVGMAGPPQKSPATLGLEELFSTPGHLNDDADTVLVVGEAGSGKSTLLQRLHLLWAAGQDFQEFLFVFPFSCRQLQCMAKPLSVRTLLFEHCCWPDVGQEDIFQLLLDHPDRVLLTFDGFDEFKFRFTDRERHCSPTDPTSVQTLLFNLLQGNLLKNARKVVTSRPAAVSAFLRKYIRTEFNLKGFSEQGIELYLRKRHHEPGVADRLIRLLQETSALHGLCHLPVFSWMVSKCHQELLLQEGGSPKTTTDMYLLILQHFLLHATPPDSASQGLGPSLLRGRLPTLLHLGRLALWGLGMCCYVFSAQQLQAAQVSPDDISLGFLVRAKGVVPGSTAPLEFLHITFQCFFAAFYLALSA

Binder | binding result [2] | also measured
RIP2CARD (residues 431-540), wild type, HIS-MBP tag cleaved (domain or fragment, human, UniProt O43353 431-540, looked up, RIP2 CARD domain, human, residues 431-540; The atomic model of the filament comprises residues P433 to Q518; also called RIP2CARD filament; NOD2CARDS^s-WT; source: E. coli Rosetta 2, purified (amylose resin, Superose6), HIS-MBP cleaved by P3C, Ni-NTA, dialysis; not shown: His, N-terminal, cleaved; MBP, N-terminal, cleaved) LQPGIAQQWIQSKREDIVNQMTEACLNQSLDALLSRDLIMKEDYELVSTKPTRTSKVRQLLDTTDIQGEEFAKVIVQKLKDNKQMGLQPYPEILVVSRSPSLNLLQNKSM |  | binding result [1]: binds
RIP2CARD (431-540) T452A, HIS-MBP tag cleaved (domain or fragment, human, UniProt O43353 431-540, looked up, RIP2 CARD domain, human, residues 431-540; source: E. coli Rosetta 2, co-purified with NOD2CARDS^s on amylose resin, tags cleaved by proteases; not shown: His, N-terminal, cleaved; MBP, N-terminal, cleaved) LQPGIAQQWIQSKREDIVNQMAEACLNQSLDALLSRDLIMKEDYELVSTKPTRTSKVRQLLDTTDIQGEEFAKVIVQKLKDNKQMGLQPYPEILVVSRSPSLNLLQNKSM | binds | 
RIP2CARD (431-540) C455A, HIS-MBP tag cleaved (domain or fragment, human, UniProt O43353 431-540, looked up, RIP2 CARD domain, human, residues 431-540; source: E. coli Rosetta 2, co-purified with NOD2CARDS^s on amylose resin, tags cleaved by proteases; not shown: His, N-terminal, cleaved; MBP, N-terminal, cleaved) LQPGIAQQWIQSKREDIVNQMTEAALNQSLDALLSRDLIMKEDYELVSTKPTRTSKVRQLLDTTDIQGEEFAKVIVQKLKDNKQMGLQPYPEILVVSRSPSLNLLQNKSM | binds | 
RIP2CARD (431-540) T452K, HIS-MBP tag cleaved (domain or fragment, human, UniProt O43353 431-540, looked up, RIP2 CARD domain, human, residues 431-540; also called RIP2CARD-T452K; NOD2CARDS^s-T452K; source: E. coli Rosetta 2, co-purified with NOD2CARDS^s on amylose resin, tags cleaved by proteases; not shown: His, N-terminal, cleaved; MBP, N-terminal, cleaved) LQPGIAQQWIQSKREDIVNQMKEACLNQSLDALLSRDLIMKEDYELVSTKPTRTSKVRQLLDTTDIQGEEFAKVIVQKLKDNKQMGLQPYPEILVVSRSPSLNLLQNKSM | binds | 
RIP2CARD (431-540) C455S, HIS-MBP tag cleaved (domain or fragment, human, UniProt O43353 431-540, looked up, RIP2 CARD domain, human, residues 431-540; also called RIP2CARD-C455S; NOD2CARDS^s-C455S; source: E. coli Rosetta 2, co-purified with NOD2CARDS^s on amylose resin, tags cleaved by proteases; not shown: His, N-terminal, cleaved; MBP, N-terminal, cleaved) LQPGIAQQWIQSKREDIVNQMTEASLNQSLDALLSRDLIMKEDYELVSTKPTRTSKVRQLLDTTDIQGEEFAKVIVQKLKDNKQMGLQPYPEILVVSRSPSLNLLQNKSM | binds | 
RIP2CARD (431-540) E453A, HIS-MBP tag cleaved (domain or fragment, human, UniProt O43353 431-540, looked up, RIP2 CARD domain, human, residues 431-540; source: E. coli Rosetta 2, co-purified with NOD2CARDS^s on amylose resin, tags cleaved by proteases; not shown: His, N-terminal, cleaved; MBP, N-terminal, cleaved) LQPGIAQQWIQSKREDIVNQMTAACLNQSLDALLSRDLIMKEDYELVSTKPTRTSKVRQLLDTTDIQGEEFAKVIVQKLKDNKQMGLQPYPEILVVSRSPSLNLLQNKSM | binds | 
RIP2CARD (residues 435-540), MBP tag cleaved (domain or fragment, human, UniProt O43353 435-540, looked up, RIP2 CARD domain, human, residues 435-540; Isotope-labelled for solid-state NMR; also called RIP2CARD VV; RIP2CARD filament; source: E. coli Rosetta 2 (BL21 star for NMR), purified (amylose resin), MBP cleaved by TEV; not shown: MBP, N-terminal, cleaved) IAQQWIQSKREDIVNQMTEACLNQSLDALLSRDLIMKEDYELVSTKPTRTSKVRQLLDTTDIQGEEFAKVIVQKLKDNKQMGLQPYPEILVVSRSPSLNLLQNKSM |  | binding result [3]: binds; binding result [4]: binds
